This is an account of results in patent publication US20110286916A1 (published 2011).

Test [1] addresses T1, human full-length Notch3 with C-terminal FLAG tag, stably expressed on 293 FlpIn (TREx) cells (human, UniProt Q9UM47 40-2321).
T1 construct: whole, on cells; made by the same strategy as the Notch1 line; also called 293-N3; hN3
Put plainly: FACS, phage scFv.

The target in test [2] is T2, human full-length Notch1 with C-terminal FLAG tag, stably expressed on 293 FlpIn (TREx) cells (human, UniProt P46531 19-2555).
T2 construct: tetracycline/doxycycline-induced expression from pcDNA5/FRT/TO-HN1+FLAG; also called hN1; 293_N1
Briefly: FACS, phage scFv.

B1: hN1S3-040 (scFv, V domains shown)
VH: EVQLVQSGPEVKKPGTSVKVSCKASGFTFTSSAVQWVRQARGQRLEWIGWIVVGSGNTNYAQKFQERVTITRDMSTSTAYMELSSLRSEDTAVYYCVADTVYWGRGTTVTVSS
VL: QSVLTQPPSASGTPGQGVTISCSGSSSNIGRNSVNWYQQLPGTAPKLLIYGDNQRPSGVPDRFSGSKPGTSASLAISGLQSDDEAHYYCAAWDDSLNGWVFGGGTKVTVL
notes: phage scFv
With B1, the binding result in test [1] and in test [2] was “binds” throughout.

B2: hN1S3-127 (scFv, V domains shown)
VH: EVQLVQSGAEVKKPGASVKVSCKASGYNFTGYYMHWVRQAPGQGLEWMGWINPNSGGTNYAQKFQGRVTMTRDTSISTAYMELSRLRSDDTAVYYCATDSFDYWGQGTLVTVSS
VL: QSVLTQPPSVSGAPGQRVTISCSGSTSNIGGNPVTWYQQFPGTAPKLLVYRDNQRPSGVADRFSGSRSGTSASLAISGLQSEDEADFYCASWDDSLGGVVFGGGTKLTVL
notes: phage scFv
For the molecule B2, the binding result in test [1] and in test [2] was “binds” throughout.

B3: hN1S3-136 (scFv, V domains shown)
VH: QVQLQESGAEVKKPGASVKVSCKASGYNFTGYYMHWVRQAPGQGLEWMGWINPNSGGTNYAQKFQGRVTMTRDTSISTAYMELSRLRSDDTAVYYCATDSFDYWGRGTTVTVSS
VL: QAVLTQPSSESGTPGQRVTISCSGTTSNIGDNTVTWYQQLPGTAPKLLIYSNTQRPSGVPARFSGSKSGTSASLAISGLQSGDEADYYCAAWDDSRNGYVFGTGTKLTVL
notes: phage scFv
As for B3, the binding result in test [1] and in test [2] was “binds” in each case.

B4: hN1S3-177 (scFv, V domains shown)
VH: EVQLVQSGAEVKKPGASVKVSCKASGYNFTGYYMHWVRQAPGQGLEWMGWINPNSGGANYAQKFQGRVTMTRDTSISTAYMELSRLRSDDTAVYYCATDSFDYWGRGTLVTVSS
VL: QAVLTQPSSASGTPGQRVTISCSGSSSNIGTNYVYWYQHLPGMAPKLLLYSNNQRPSGVPDRFSGSKSGPSASLAISGLRSEDEADYYCAAWDDSLSGLVFGGGTKLTVL
notes: phage scFv
With B4, the binding result in test [1] and in test [2] was “binds” in each case.

B5: hN1S3-006 (scFv, V domains shown)
VH: QVQLVQSGAEVKKPGASVKVSCKASGYNFTGYYIHWVRQAPGQGLEWMGWINPNSGGTNYAQKFQGRVIMTRDTSISTAYMELSRLRSDDTAVYYCATDSFDYWGRGTLVTVSS
VL: QAVLTQPSSASGTAGQRVTISCSGSNSNIGSNTVNWYQQLPGTTPKLLIYSNNERPSGVPDRFSGSKSGTSASLAISGLQSDDEADYYCAAWDDSLNGYVFGTGTKVTVL
notes: phage scFv
B5: the binding result in test [1] and in test [2] was “binds” in each case.

B6: hN1S3-135 (scFv, V domains shown)
VH: EVQLVQSGAEVKKPGASVKVSCKASGYNFTGYYMHWVRQAPGQGLEWMGWINPNSGGTNYAQKFQGRVTMTRDTSISTAYMELSRLRSDDTAVYYCATDSFDYWGKGTLVTVSS
VL: LPVLTQPPSVSEAPRQRVTISCSGSSFNIGNNAVNWYQQLPGKAPKLLIYYDDLLPSGVSDRFSGSKSGTSASLAISGLQSEDEADYYCAAWDDSLNAVVFGGGTKVTVL
notes: phage scFv
Take B6: the binding result in test [1] and in test [2] was “binds” in each case.

B7: hN1S3-007 (scFv, V domains shown)
VH: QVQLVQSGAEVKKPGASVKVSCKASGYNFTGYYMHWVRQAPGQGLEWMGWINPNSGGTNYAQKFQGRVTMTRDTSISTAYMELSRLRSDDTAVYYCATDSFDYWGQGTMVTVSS
VL: QAVLTQPSSVSGTPGQRVTMSCSGGRSNIGSNAVNWYQQFPGTAPKLLMYNTNQRPSGVPGRFSGSKSGASASLAISGLQSDDEADYYCSSWDDSLNGLEFGGGTKLTVL
notes: phage scFv
B7: the binding result in test [1] and in test [2] was “binds” in each case.

B8: N1wc266 (scFv, V domains shown)
VH: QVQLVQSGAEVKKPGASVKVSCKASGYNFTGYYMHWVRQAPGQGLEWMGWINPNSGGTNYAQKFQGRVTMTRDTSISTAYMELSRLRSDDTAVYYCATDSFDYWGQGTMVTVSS
VL: QAVLTQPSSVSGTPGQRVTMSCSGGRSNIGSNAVNWYQQFPGTAPKLLMYNTNQRPSGVPGRFSGSKSGASASLAISGLQSDDEADYYCSSWDDSLNGLEFGGGTKLEIK
notes: phage scFv
As to B8, the binding result in test [1] and in test [2] was “binds” throughout.

B9: hN1S3-002 (scFv, V domains shown)
VH: GVQLVQSGAEVKKPGASVKVSCKASGYTFTDYYVHWVRQAPGQGPEWMGWINPNNGGTKYAQKFQGRVTMTTDTSTSTAYMELRSLRSDDTALYYCARDLLPYYGDYRADKIDDFDIWGRGTLVTVSS
VL: QSVLTQPPSASGTPGQRVTISCSGSSSNIGSNTVNWYQRLPGAAPQLLIYNNDQRPSGIPDRFSGSKSGTSGSLVISGLQSEDEADYYCASWDDSLNGRVFGGGTKLTVL
notes: phage scFv
With B9, the binding result in test [1] and in test [2] was “binds” each time.

B10: hN1S3-107 (scFv, V domains shown)
VH: EVQLVQSGPEVKKPGASVKVSCKASGYTFTDYFLNWVRQAPGQGLEWIGWINPNTGGTNYAQNFQGRVTVTRDASISTAYMELRSLTSADTAIYYCARGAYDYVWGSHRYVADAFDIWGQGTLVTVSS
VL: QSVLTQPPSASGTPGQRVTISCSGSSSNIGSNTVNWYQRLPGAAPQLLIYNNDQRPSGIPDRFSGSKSGTSGSLVISGLQSEDEADYYCASWDDSLNGRVFGGGTKLTVL
notes: phage scFv
With B10, the binding result in test [1] and in test [2] was “binds” throughout.

B11: hN1S3-108 (scFv, V domains shown)
VH: QVQLVQSGAEVRKPGASVKVSCKASGYTFTDYYLHWVRQAPGLGLEWMGWINPNTGGTDYGQKFQGRVTMTRDTSINTAYMELSSLRSDDTAVYYCARGAYDYVWGSHRYVADAFDIWGQGTTVTVSS
VL: DIVMTQSPSTLSASVGDRVTITCRASQGISSWLAWYQQKPGRAPKVLIYKASTLESGVPSRFSGSGSGTDFTLTISSLQPEDFATYYCQQSYSTPWTFGQGTKLEIK
notes: phage scFv
Regarding B11, the binding result in test [1] and in test [2] was “binds” throughout.

B12: N1wc21 (scFv, V domains shown)
VH: QVQLVESGAEVKKPGASVKVSCKASGYTFTDHYIQWLRQAPGQGLEWMGWMNPKSGGTNYAQKFQGRVTLTRDTSISTAYMDLSGLRFDDTAIYFCASDPTIPPSPNYDYYYYAMDLWGKGTLVTVSS
VL: SYELTQPPSVSVSPGQTARITCSGDALPDKYVHWYQQKSGQAPVLVLFDDSKRPSGIPERFSGSSSGTVATLIISGAQVEDEGDFFCYSTDSSGNERVFGGGTKLTVL
notes: phage scFv
As for B12, the binding result in test [1] and in test [2] was “binds” each time.

B13: hN1S3-030 (scFv, V domains shown)
VH: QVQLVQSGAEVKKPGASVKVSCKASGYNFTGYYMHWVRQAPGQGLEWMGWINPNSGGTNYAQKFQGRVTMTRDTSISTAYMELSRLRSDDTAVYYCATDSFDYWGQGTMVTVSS
VL: QSVLTQPPSASGTPGQRVSISCSGSSSNIGSNYVYWYQQLPGTAPKVLVYRNNQRPSGVSDRFSGSKYGTSASLAISGLRSEDEADYYCGSWDDSLSGVVFGGGTKVTVL
notes: phage scFv
With B13, the binding result in test [1] and in test [2] was “binds” throughout.

B14: N1wc16 (scFv, V domains shown)
VH: QVQLQQSGAEVKTPGASVKVSCKASGYTFTDNYIHWVRQAPGQGLEWMGRINVNSGATNYARKFQGRVTMTGDTSISTAYMDLSRLKSDDTAVYYCARDFRYSGVDVWGQGTMVTVSS
VL: QSVLTQPPSVSVAPGQTATLSCVGDAIERKSVHWYQQRPGQAPVLVVHDDSDRPSGIPDRISGSNSGNTATLTITRVEVGDEADYFCQVWDTSSGHDAVVFGGGTKLTVL
notes: phage scFv
With B14, the binding result in test [1] and in test [2] was “binds” each time.

B15: N1wc24 (scFv, V domains shown)
VH: EVQLVESGPGLVKPSETLSLTCTVSGGSMTSNFWSWIRQTPGKGLEWIGYVLYTGSTNSNPSLKSRVTMSVDTSKNQVSLTLSSVTAADTAIYYCARGNGWYLPWGRGTMVTVSS
VL: QSVLTQPPSVSGAPRQRVTISCSGSSSNIENNIVNWYQQLPGEAPKLLIYYDNLLPSGVSDRFSGSKSGTSASLAISGLQSGDEADYYCAAWDDSLKAVVFGGGTKLTVL
notes: phage scFv
Turning to B15, the binding result in test [1] and in test [2] was “binds” throughout.

B16: hN1S3-112 (scFv, V domains shown)
VH: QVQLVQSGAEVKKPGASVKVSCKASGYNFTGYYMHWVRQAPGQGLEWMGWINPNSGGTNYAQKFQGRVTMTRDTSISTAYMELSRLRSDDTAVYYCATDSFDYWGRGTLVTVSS
VL: LPVLTQPPSASGTPGQRVTISCSGSSSNIGNNYVYWYQQLPGTAPKLLIYRNNQRPSGVPDRFSASKSGTSASLVISGIRSEDEAEYYCGGWDDSLSGQVVFGGGTKLTVL
notes: phage scFv
As to B16, the binding result in test [1] and in test [2] was “binds” each time.

B17: hN1S3-088 (scFv, V domains shown)
VH: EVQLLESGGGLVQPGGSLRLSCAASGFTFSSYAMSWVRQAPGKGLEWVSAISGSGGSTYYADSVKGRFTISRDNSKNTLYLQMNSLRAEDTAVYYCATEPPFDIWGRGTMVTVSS
VL: QSVLTQPPSVSGTPGQRVTISCSGSSSNIGNDVVNWYQQLPGTAPKLLIYNDYQRPSGVSDRFSGSKSGTSAYLAISGLQSEDEADYHCAVWDDSLDGWVFGGGTKLTVL
notes: phage scFv
As to B17, the binding result in test [1] and in test [2] was “binds” throughout.

B18: hN1S3-087 (scFv, V domains shown)
VH: QVQLVQSGAEVKKPGASVRISCKTSGFTFTSYFIHWVRQAPGQRPEWMGVINPSRGNADYAPRFRGRVTMTRDKSTHTVYMDLKSLRSDDAAIYYCARDRLGGLLDYYDSSDSSKNFDAFDFWGQGTLVTVSS
VL: NFMLTQPHSVSESPGKTVTISCTRSSGSIGSSYVQWYQQRPGTSPVTIIYEDSQRPSGVPDRFSGSIDNSANSASLTISGLKTEDEADYYCQSYDANNRVFGGGTKLTVL
notes: phage scFv
Consider B18, for which the binding result in test [1] and in test [2] was “binds” in each case.

B19: hN1S3-190 (scFv, V domains shown)
VH: QVQLVQSGAEVKKPGASVRISCKTSGFTFTSYFIHWVRQAPGQRPEWMGVINPSRGNADYAPRFRGRVTMTRDKSTHTVYMDLKSLRSDDAAIYYCARDRLGGLLDYYDSSDSSKNFDAFDFWGQGTLVTVSS
VL: SSELTQDPAVSVALGQTVRITCQGDSLRSNYPSWYQQKPGQAPLLVIYSENRRPSGIPDRFSASRSGNTASLTITGAQAEDEADYYCHSRGSSGNHKVFGGGTQLTVL
notes: phage scFv
For B19, the binding result in test [1] and in test [2] was “binds” throughout.

B20: hN1S3-153 (scFv, V domains shown)
VH: QVQLQESGGGLVQPGGSLSLSCATSGFTFGNYVMRWVRQAPGKGLEWVSTITEGGGDFIYYADSVKGRFAISRDNSKSTVYLHMNGLRVEDTAVYYCAKSGGDDNSNYNFEYWGQGTLVTVSS
VL: QAVLTQPSSVSGAPGQRVIISCTGTSSNTGAGYYVNWYQQLPGAAPKVLIFGNDNRPSGVPDRFSGAKSGTSASLAITGLQAEDEADYYCQSYDRSLSGWVFGGGTKLTVL
notes: phage scFv
On to B20, for which the binding result in test [1] and in test [2] was “binds” throughout.
